Publication PMC10625714 (Nature chemical biology, 2023)

Biological target: the molecule itself
Assay: cryo-EM structure

B1: nuclease-deficient AsCas12f (AsCas12f-D225A) (enzyme, Acidibacillus sulfuroxidans)
chain: MIKVYRYEIVKPLDLDWKEFGTILRQLQQETRFALNKATQLAWEWMGFSSDYKDNHGEYPKSKDILGYTNVHGYAYHTIKTKAYRLNSGNLSQTIKRATDRFKAYQKEILRGDMSIPSYKRDIPLDLIKENISVNRMNHGDYIASLSLLSNPAKQEMNVKRKISVIIIVRGAGKTIMDRILSGEYQVSASQIIHDDRKNKWYLNISYDFEPQTRVLDLNKIMGIALGVAVAVYMAFQHTPARYKLEGGEIENFRRQVESRRISMLRQGKYAGGARGGHGRDKRIKPIEQLRDKIANFRDTTNHRYSRYIVDMAIKEGCGTIQMEDLTNIRDIGSRFLQNWTYYDLQQKIIYKAEEAGIKVIKIDPQYTSQRCSECGNIDSGNRIGQAIFKCRACGYEANADYNAARNIAIPNIDKIIAESIK
stoichiometry N: 2
